B1: Integrin beta-3 (Homo sapiens), P05106 (parent)
chain: MRARPRPRPLWATVLALGALAGVGVGGPNICTTRGVSSCQQCLAVSPMCAWCSDEALPLGSPRCDLKENLLKDNCAPESIEFPVSEARVLEDRPLSDKGSGDSSQVTQVSPQRIALRLRPDDSKNFSIQVRQVEDYPVDIYYLMDLSYSMKDDLWSIQNLGTKLATQMRKLTSNLRIGFGAFVDKPVSPYMYISPPEALENPCYDMKTTCLPMFGYKHVLTLTDQVTRFNEEVKKQSVSRNRDAPEGGFDAIMQATVCDEKIGWRNDASHLLVFTTDAKTHIALDGRLAGIVQPNDGQCHVGSDNHYSASTTMDYPSLGLMTEKLSQKNINLIFAVTENVVNLYQNYSELIPGTTVGVLSMDSSNVLQLIVDAYGKIRSKVELEVRDLPEELSLSFNATCLNNEVIPGLKSCMGLKIGDTVSFSIEAKVRGCPQEKEKSFTIKPVGFKDSLIVQVTFDCDCACQAQAEPNSHRCNNGNGTFECGVCRCGPGWLGSQCECSEEDYRPSQQDECSPREGQPVCSQRGECLCGQCVCHSSDFGKITGKYCECDDFSCVRYKGEMCSGHGQCSCGDCLCDSDWTGYYCNCTTRTDTCMSSNGLLCSGRGKCECGSCVCIQPGSYGDTCEKCPTCPDACTFKKECVECKKFDRGALHDENTCNRYCRDEIESVKELKDTGKDAVNCTYKNEDDCVVRFQYYEDSSGKSILYVVEEPECPKGPDILVVLLSVMGAILLIGLAALLIWKLLITIHDRKEFAKFEEERARAKWDTANNPLYKEATSTFTNITYRGT

Variants of B1 are the subject of this assay. To be noted: with ITGA2B.
Consider K742S, for which the “effect of a mutation on the interaction” value was “disrupting interaction strength”.

For the variant K742A, the “effect of a mutation on the interaction” value was “disrupting interaction strength”.

Consider K742E, for which the “effect of a mutation on the interaction” value is “disrupting interaction strength”.

K742C: the “effect of a mutation on the interaction” value is reported as “disrupting interaction strength”.

On to K742L, for which the “effect of a mutation on the interaction” value was “disrupting interaction strength”.
